In patent US9789203B2, “cKIT antibody drug conjugates” (Novartis AG, priority 2013, dated 2017):
Positions count from the first letter of the chain named.

B1: 9P3: hybridoma derived anti-cKIT antibody, VH SEQ ID NO.9, VL SEQ ID NO.18 (antibody, V domains shown)
VH: EVRLVESEGGLVQPRSSMKLSCTASGFTFSDYYMAWVRQVPEKGLEWVANINYDGSSTYYLDSLKSRFIISRDNAKNILYLQMSSLKSEDTATYYCARGDYYGTTYWYFDVWGTGTTVTVSS
VL: DIQMTQTTSSLSASLGDRVTISCRASQDISNYLNWYQQKPDGTVKLLIYYTSRLQSGVPSRFSGSGSGTDYSLTISNLEQEDIATYFCQQGKKLWSFGGGTKLEIKR
B2: NEG026: anti-cKIT antibody of Table 1, VH SEQ ID NO 46, VL SEQ ID NO 55 (antibody, V domains shown)
VH: EVQLVESGGGLVQPGGSLRLSCAASGFTFSDYYMAWVRQAPGKGLEWVANINQNTGSTYYVDSVQGRFTISRDNAKNSLYLQMNSLRAEDTAVYYCARGDYYGTTYWYFDVWGQGTTVTVSS
VL: EIVMTQSPATLSLSPGERATLSCRASQDISNYLNWYQQKPGQAPRLLIYYTSRLQSGIPARFSGSGSGTDYTLTISSLEPEDFAVYYCQQGKKLWSFGGGTKVEIK
B3: NEG087: anti-cKIT antibody of Table 1, VH SEQ ID NO 118, VL SEQ ID NO 127 (antibody, V domains shown)
VH: B2 VH with N50S, V61L, Q65R
VL: DIQMTQSPSSLSASVGDRVTITCRASQSISSYLNWYQQKPGKAPKLLIYYTSRLQSGVPSRFSGSGSGTDFTLTISSLQPEDFATYYCQQGRRLWSFGGGTKVEIK
B4: NEG086: anti-cKIT antibody of Table 1, VH SEQ ID NO 100, VL SEQ ID NO 109 (antibody, V domains shown)
VH: B2 VH with N54I, T55A
VL: B3 VL
B5: NEG027: anti-cKIT antibody of Table 1, VH SEQ ID NO 64, VL SEQ ID NO 73 (antibody, V domains shown)
VH: B2 VH with N50S, V61L, Q65R
VL: B2 VL

Assays:
[1] = tested on: HAMLX5343 systemic primary AML xenograft; assay: In vivo efficacy, HAMLX5343 systemic primary AML xenograft
Procedure: (§4) Female NSG mice were implanted systemically (via tail vein injection) with 5×10^6 cells in phosphate buffered saline.
(§5) Leukemic burden was measured by flow cytometry. Weekly, blood was collected from all study animals via the tail. […] The stained cells were analyzed on a FACS Canto flow cytometer (BD Biosciences) (FIG. 52A). Body weights were measured twice weekly (FIG. 52B).

[2] = tested on: HAMLX5343 systemic primary AML xenograft; conditions: mouse, in vivo, ip
Procedure: as §4, §5

Uke-1 cells = assay: ADCC activity in vitro (Calcein release, NK3.3 effector cells); assay type: cell-based, human; conditions: Uke-1 target cells, NK3.3 effector cells 20 to 1, FIG. 17
Procedure: In brief, Uke-1 cells were stained with Calcein acetoxy-methyl ester (Calcein-AM; Sigma-Aldrich catalog #17783-5MG, St. Louis, Mo.), washed twice, pipetted into a 96-well microtiterplate (96 well, U-bottomed, clear plastic; Corning Costar, catalog #650 160, Tewksbury, Mass.) at a concentration of 5000 cells per well and pre-incubated for 10 min with a serial dilution of the above mentioned antibodies and proteins (from 50,000 to 0.003 μg per ml) before adding the effector NK3.3 cells for 1 hour in an effector to target ratio of 20 to 1. In order to calculate the antibody specific lysis of the target cells, a parallel incubation of target cells only without antibody or effector cells served as a baseline and negative control, whereas the positive control or maximal lysis or hundred percent specific lysis was determined by lysis of target cells only with a 1% Triton-X 100 solution. […] Following a co-incubation of target and effector cells, the microtiterplate was centrifuged and an aliquot of the supernatant fluid was transferred to another microtiterplate (96 well, flat-bottomed, black with clear bottom; (Corning Costar, catalog #3904, Tewksbury, Mass.) and the concentration of free Calcein in solution was determined with a fluorescence counter (Victor 3® multilabel counter, Perkin Elmer, Waltham, Mass.).

GIST cell lines = conditions: Edris et al. 2013; cited from earlier work
SCF binding to cKIT = SCF binding to cKIT (Homo sapiens, UniProt P10721); assay: Competition assays using ELISA and FACS, SCF binding to cKIT
mouse cKIT ECD = target: T1, mouse cKIT ECD (Mus musculus, UniProt P05532); assay: SPR (Biacore 2000) affinity measurement; assay type: binding; conditions: 25° C., antibody captured, ECD in solution
T1 construct: 3.125-50 nM of cKIT receptor extracellular domains (ECD) were diluted in a 2-fold series
T1 sequence (P05532 25-527 limits assumed): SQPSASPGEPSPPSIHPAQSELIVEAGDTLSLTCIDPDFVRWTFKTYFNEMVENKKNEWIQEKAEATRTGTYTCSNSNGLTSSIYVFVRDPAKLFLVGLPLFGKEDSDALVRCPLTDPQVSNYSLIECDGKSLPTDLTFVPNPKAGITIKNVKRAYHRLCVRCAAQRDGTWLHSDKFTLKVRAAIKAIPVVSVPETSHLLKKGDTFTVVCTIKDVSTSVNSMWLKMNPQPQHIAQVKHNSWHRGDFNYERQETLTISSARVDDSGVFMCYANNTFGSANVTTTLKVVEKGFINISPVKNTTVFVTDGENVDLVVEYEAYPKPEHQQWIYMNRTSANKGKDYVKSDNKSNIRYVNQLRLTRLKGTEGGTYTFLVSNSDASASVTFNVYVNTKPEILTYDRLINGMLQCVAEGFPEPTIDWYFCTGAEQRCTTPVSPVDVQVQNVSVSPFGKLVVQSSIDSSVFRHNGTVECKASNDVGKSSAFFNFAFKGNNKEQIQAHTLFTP
Procedure: (§1) Affinity of the antibodies to cKIT species orthologues and also to cKIT was determined using SPR technology using a Biacore® 2000 instrument (GE Healthcare, Pittsburgh, Pa.) and with CM5 sensor chips.
(§2) Briefly, HBS-P (0.01 M HEPES, pH 7.4, 0.15 M NaCl, 0.005% Surfactant P20) supplemented with 2% Odyssey® blocking buffer (Li-Cor Biosciences, Lincoln, Nebr.) was used as the running buffer for all the experiments. The immobilization level and analyte interactions were measured by response unit (RU). Pilot experiments were performed to test and confirm the feasibility of the immobilization of the anti-human Fc antibody (Catalog number BR100839, GE Healthcare, Pittsburgh, Pa.) and the capture of the test antibodies.
(§3) For kinetic measurements, the experiments were performed in which the antibodies were captured to the sensor chip surface via the immobilized anti-human Fc antibody and the ability of the cKIT proteins to bind in free solution was determined Briefly, 25 μg/ml of anti-human Fc antibody at pH 5 was immobilized on a CM5 sensor chip through amine coupling at flow rate of 5 μl/minute on all two flow cells to reach 10,500 RUs. 0.1-1 μg/ml of test antibodies were then injected at 10 μl/min for 1 minute. Captured levels of the antibodies were generally kept below 200 RUs. Subsequently, 3.125-50 nM of cKIT receptor extracellular domains (ECD) were diluted in a 2-fold series and injected at a flow rate of 40 μl/min for 3 min over both reference and test flow cells. Table of tested ECDs is listed below. Dissociation of the binding was followed for 10 min. After each injection cycle, the chip surface was regenerated with 3 M MgCl2 at 10 μl/min for 30 s.

rat cKIT ECD = assay: SPR (Biacore 2000) affinity measurement; assay type: binding; conditions: 25° C., antibody captured, ECD in solution
Procedure: as §1, §2, §3

[3] = tested on: GIST T1 subcutaneous tumor xenograft; conditions: GIST T1, SCID-beige mice, single i.v. dose 10 mg/kg
Procedure: The anti-tumor activity of anti-cKIT ADCs was evaluated in several tumor xenograft models.

[4] = HAMLX5343, Day 71, 50 mg/kg Daily x 6 days, intraperitoneally

Sequence of rat cKIT ECD (as listed by the source): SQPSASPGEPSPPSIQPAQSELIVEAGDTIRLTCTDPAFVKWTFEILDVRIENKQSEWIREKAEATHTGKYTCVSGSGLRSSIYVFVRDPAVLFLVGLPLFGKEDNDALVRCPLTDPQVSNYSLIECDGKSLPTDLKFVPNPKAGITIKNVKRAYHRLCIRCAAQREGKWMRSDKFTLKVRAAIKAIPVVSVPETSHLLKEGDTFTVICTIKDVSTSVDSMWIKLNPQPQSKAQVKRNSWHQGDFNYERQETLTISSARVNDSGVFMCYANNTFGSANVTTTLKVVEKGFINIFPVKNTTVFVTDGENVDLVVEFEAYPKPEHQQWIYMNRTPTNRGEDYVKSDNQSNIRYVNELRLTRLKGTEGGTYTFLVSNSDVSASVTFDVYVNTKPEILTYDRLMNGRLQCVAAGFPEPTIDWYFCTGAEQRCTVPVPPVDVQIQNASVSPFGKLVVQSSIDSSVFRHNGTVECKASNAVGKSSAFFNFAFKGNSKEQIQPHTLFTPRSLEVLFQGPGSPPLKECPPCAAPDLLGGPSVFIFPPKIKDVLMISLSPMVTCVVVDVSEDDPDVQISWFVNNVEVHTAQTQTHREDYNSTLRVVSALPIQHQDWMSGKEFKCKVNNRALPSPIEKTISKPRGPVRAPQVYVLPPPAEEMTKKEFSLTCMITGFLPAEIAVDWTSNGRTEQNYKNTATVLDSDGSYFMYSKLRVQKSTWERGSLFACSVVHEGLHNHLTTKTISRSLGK
Sequence of SCF binding to cKIT (P10721 26-976): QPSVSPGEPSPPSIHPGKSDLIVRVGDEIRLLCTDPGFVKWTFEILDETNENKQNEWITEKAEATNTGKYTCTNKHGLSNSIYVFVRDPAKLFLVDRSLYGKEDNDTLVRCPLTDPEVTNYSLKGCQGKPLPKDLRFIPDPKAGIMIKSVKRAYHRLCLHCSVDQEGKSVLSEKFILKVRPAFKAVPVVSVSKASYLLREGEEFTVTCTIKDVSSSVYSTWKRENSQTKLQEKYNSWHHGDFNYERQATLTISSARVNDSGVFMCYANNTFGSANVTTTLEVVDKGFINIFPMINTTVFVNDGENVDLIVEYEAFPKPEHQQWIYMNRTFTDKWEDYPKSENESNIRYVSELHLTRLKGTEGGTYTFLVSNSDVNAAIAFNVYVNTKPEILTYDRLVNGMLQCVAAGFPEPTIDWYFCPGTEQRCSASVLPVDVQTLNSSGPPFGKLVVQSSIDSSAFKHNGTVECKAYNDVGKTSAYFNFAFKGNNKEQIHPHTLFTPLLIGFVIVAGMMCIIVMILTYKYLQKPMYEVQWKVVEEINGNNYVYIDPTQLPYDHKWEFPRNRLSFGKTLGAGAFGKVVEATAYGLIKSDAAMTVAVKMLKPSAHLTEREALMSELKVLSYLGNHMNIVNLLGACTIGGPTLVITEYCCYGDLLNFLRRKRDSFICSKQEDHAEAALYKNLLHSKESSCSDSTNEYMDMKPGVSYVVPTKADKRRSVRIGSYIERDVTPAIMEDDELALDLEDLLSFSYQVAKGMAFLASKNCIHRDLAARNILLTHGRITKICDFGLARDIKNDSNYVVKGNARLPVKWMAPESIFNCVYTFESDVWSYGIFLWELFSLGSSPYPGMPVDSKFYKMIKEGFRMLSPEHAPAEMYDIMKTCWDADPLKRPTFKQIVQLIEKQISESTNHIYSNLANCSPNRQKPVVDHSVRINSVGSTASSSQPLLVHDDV

Molecule	Affinity mouse cKIT (mouse cKIT ECD)	Affinity to rat cKIT (rat cKIT ECD)	other results
Nc1ccn([C@@H]2O[C@H](CO)[C@@H](O)[C@@H]2O)c(=O)n1 [ARA-C, cytarabine, reference compound]	–	–	Mean change of body weight (from day 67) [1, 4]: 2.3 ± 2.3 % ± SEM; Mean change of tumor volume [1, 4]: −6.6 ± 2.1 % CD45 positive PBMC's ± SEM; Regression [1, 4]: −52.5%; antitumor activity (leukemic burden) ([1]; HAMLX5343, intraperitoneally daily for 6 days): efficacious in three of the animals; bodyweight loss ([1]; HAMLX5343, intraperitoneally daily for 6 days, three of six animals): > 20%; toxicity [2]: highly toxic
MabCampath [reference compound]	–	–	ADCC (Uke-1 cells): mediated ADCC killing of the target cells
Cc1ccc(NC(=O)c2ccc(CN3CCN(C)CC3)cc2)cc1Nc1nccc(-c2cccnc2)n1 [Imatinib]	–	–	cell proliferation (GIST cell lines): significantly reduce proliferation of GIST cell lines
B1	Not reactive	Not reactive	blocking of SCF binding to cKIT (SCF binding to cKIT): partial blocking; antitumor activity (tumor volume) [3]: Neither the control non-specific IgG1 ADCs nor the unconjugated 9P3 were efficacious
B2	Not reactive	Not reactive	–
B3	Not reactive	Not reactive	–
B4	Not reactive	Not reactive	–
B5	Not reactive	Not reactive	–
